Earlier results in PMC7855609.

What was measured:
Asp226 = Asp226 (UniProt position 292, CLALVDTGASY); assay: kinetics; conditions: Enzyme turning over the wild-type peptide substrate PTDP (His at P2)
Asp38 = Asp38 (UniProt position 104, FKVVFDTGSSN); assay: kinetics; conditions: Enzyme turning over the wild-type peptide substrate PTDP (His at P2)

Renin (recombinant human renal renin) (Homo sapiens)
pKa (Asp226): 6.3 | pKa (Asp38): 5.3
